Assay results as given in patent US20030153020.

Target: T1, LPXTG peptide DABCYL-QALPETGEE-EDANS
T1 chain: QALPETGEE

B1: SrtADN (SrtA in which the NH2-terminal membrane anchor segment is replaced with a six histidine tag) (protein)
chain: KPHIDNYLHDKDKDEKIEQYDKNVKEQASKDKKQQAKPQIPKDKSKVAGYIEIPDADIKEPVYPGPATPEQLNRGVSFAEENESLDDQNISIAGHTFIDRPNYQFTNLKAAKKGSMVYFKVGNETRKYKMTSIRDVKPTDVGVLDEQKGKDKQLTLITCDDYNEKTGVWEKRKIFVATEVK
LPXTG peptide cleavage activity of MTSET-inactivated SrtADN after 10 mM DTT: restored 80% of LPXTG peptide cleavage activity
cleavage of LPXTG peptide in the presence of 0.2 M NH2OH (fluorescence): Addition of 0.2 M NH2OH to this reaction resulted in an increase in fluorescence
cleavage of LPXTG peptide measured as an increase in fluorescence: SrtADN catalyzed cleavage of the substrate
hydroxylaminolysis of LPXTG peptide after pre-incubation with MTSET: pre-incubation with MTSET abolished all enzymatic activity
